# Measured values reported in US10259881 (dated 2019).
# Where two headings read alike, the source gives them in different places.
# T1: murine CD137 (mouse, UniProt P20334)
# T1 chain: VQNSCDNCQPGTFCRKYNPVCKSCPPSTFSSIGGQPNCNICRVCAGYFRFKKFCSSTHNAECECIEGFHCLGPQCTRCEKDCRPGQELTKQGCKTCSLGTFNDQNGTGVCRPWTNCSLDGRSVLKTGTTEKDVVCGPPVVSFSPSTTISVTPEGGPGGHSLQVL
# Columns and labels:
# human CD137 [1] = molecular target: T2, human CD137 (human, UniProt Q07011); assay: SPR
# human CD137 [2] = molecular target: T2, human CD137; assay: SPR; remark: listed apart in the source
# murine CD137 = molecular target: T1, murine CD137
# human CD137 [3] = molecular target: T2, human CD137; assay: SPR; remark: listed apart in the source
# human CD137 [4] = molecular target: T2, human CD137; assay: SPR; remark: listed apart in the source
# T2 sequence (Q07011 24-186): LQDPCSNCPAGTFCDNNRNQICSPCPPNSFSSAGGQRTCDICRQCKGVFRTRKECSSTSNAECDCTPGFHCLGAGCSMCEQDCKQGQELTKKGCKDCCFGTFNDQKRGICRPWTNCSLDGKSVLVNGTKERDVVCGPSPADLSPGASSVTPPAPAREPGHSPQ
Kd (human CD137 [1]) [nM],binding result (murine CD137),Binder,also measured
87.8,,"MSH1 (antibody, V domains shown) VH: QMQLVQSGAEVKKPGASVKVSCKASGYNFGGYYMHWVRQAPGQGLEWMGWVNPHSGGTNYAQKFQGRVTITRDTSASTAYMELSSLRSEDTAVYYCAREGEAWGLDLDLWGQGTLVTVSS VL: SYELTQPPSVSVAPGKTARITCGGNNIGSKSVHWYQQKPGQAPVLVIYYDSDRPSGIPERFSGSNSGNTATLTISRVEAGDEADYYCQVWDSSSVVFGGGTQLTVL",
,no binding,"MB3 (antibody, V domains shown) VH: QMQLVQSGAEVKKPGASVKVSCKASGYQMRGYYMHWVRQAPGQGLEWMGWINPNSGGTNYAQKFQGRVTITRDTSASTAYMELSSLRSEDTAVYYCAREGEAVGLDLDYWGQGTLVTVSS VL: SYELTQPPSVSVAPGKTARITCGGNNIGSKSVHWYQQKPGQAPVLVIYYDSDRPSGIPERFSGSNSGNTATLTISRVEAGDEADYYCQVWDSSSVVFGGGTQLTVL",Kd (human CD137 [3]): 229 nM
,no binding,"MSC8 (antibody, V domains shown) VH: QMQLVQSGAEVKKPGASVKVSCKASGYNFGGYYMHWVRQAPGQGLEWMGWVNPKSGGTNYAQKFQGRVTITRDTSASTAYMELSSLRSEDTAVYYCAREGEAVGLDLDYWGQGTLVTVSS VL: SYELTQPPSVSVAPGKTARITCGGNNIGSKSVHWYQQKPGQAPVLVIYYDSDRPSGIPERFSGSNSGNTATLTISRVEAGDEADYYCQVWDSSSVVFGGGTQLTVL",Kd (human CD137 [3]): 218 nM
,no binding,"MB12 (antibody, V domains shown) VH: QMQLVQSGAEVKKPGASVKVSCKASGYSLEGYYMHWVRQAPGQGLEWMGWINPNSGGTNYAQKFQGRVTITRDTSASTAYMELSSLRSEDTAVYYCAREGEAVGLDLDYWGQGTLVTVSS VL: SYELTQPPSVSVAPGKTARITCGGNNIGSKSVHWYQQKPGQAPVLVIYYDSDRPSGIPERFSGSNSGNTATLTISRVEAGDEADYYCQVWDSSSVVFGGGTQLTVL",Kd (human CD137 [4]): 155 nM

# Second part, the binder before the results:
Binder,Kd (human CD137 [1]) [nM],binding result (murine CD137),also measured
"MC8 (antibody, V domains shown) VH: QMQLVQSGAEVKKPGASVKVSCKASGYMPDGYYMHWVRQAPGQGLEWMGWINPRTGGTNYAQKFQGRVTITRDTSASTAYMELSSLRSEDTAVYYCAREGAAFRLELDAWGQGTLVTVSS VL: SYELTQPPSVSVAPGKTARITCGGNNIGSKSVHWYQQKPGQAPVLVIYYDSDRPSGIPERFSGSNSGNTATLTISRVEAGDEADYYCQVWDSSSVVFGGGTQLTVL",,,Kd (human CD137 [2]): 30.2 nM
"MD4 (antibody, V domains shown) VH: QMQLVQSGAEVKKPGASVKVSCKASGYNWTGYYMHWVRQAPGQGLEWMGWINPMAGGTNYAQKFQGRVTITRDTSASTAYMELSSLRSEDTAVYYCAREGWARGVELDMWGQGTLVTVSS VL: SYELTQPPSVSVAPGKTARITCGGNNIGSKSVHWYQQKPGQAPVLVIYYDSDRPSGIPERFSGSNSGNTATLTISRVEAGDEADYYCQVWDSSSVVFGGGTQLTVL",8.9,,
"MSB7 (antibody, V domains shown) VH: QMQLVQSGAEVKKPGASVKVSCKASGYSFSGYYMHWVRQAPGQGLEWMGWVNPMSGGTNYAQKFQGRVTITRDTSASTAYMELSSLRSEDTAVYYCAREGMAMRLELDKWGQGTLVTVSS VL: SYELTQPPSVSVAPGKTARITCGGNNIGSKSVHWYQQKPGQAPVLVIYYDSDRPSGIPERFSGSNSGNTATLTISRVEAGDEADYYCQVWDSSSVVFGGGTQLTVL",16.6,,
"MSA11 (antibody, V domains shown) VH: QMQLVQSGAEVKKPGASVKVSCKASGYSFTGYYMHWVRQAPGQGLEWMGWVNPKSGGTNYAQKFQGRVTITRDTSASTAYMELSSLRSEDTAVYYCAREGWARRIDLDEWGQGTLVTVSS VL: SYELTQPPSVSVAPGKTARITCGGNNIGSKSVHWYQQKPGQAPVLVIYYDSDRPSGIPERFSGSNSGNTATLTISRVEAGDEADYYCQVWDSSSVVFGGGTQLTVL",,,Kd (human CD137 [2]): 46.9 nM
